From doi:10.1101/2020.09.14.296129 (bioRxiv, 2020)

Molecular target: calmodulin (calcium-loaded, holo-CaM) (UniProt P0DP23)
Test: other fluorescence titration + ITC

B1: P454 H477S-I479A peptide (peptide)
peptide: ASAHWGQRALQGAQAVAAAQRLVSAAALMTQ
- fold decrease of affinity for CaM against P454: ~20 fold

B2: P454 L475A-H477S-I479A peptide (peptide)
peptide: ASAHWGQRALQGAQAVAAAQRAVSAAALMTQ
- fold decrease of affinity for CaM against P454: ~20 fold

B3: P454_(R12E) peptide (P454 with R461 and R474 substituted by glutamate) (peptide)
peptide: ASAHWGQEALQGAQAVAAAQELVHAIALMTQ
- Kd: 22.7 µM

B4: P454 W458A-L463A peptide (peptide)
peptide: ASAHAGQRAAQGAQAVAAAQRLVHAIALMTQ
- fold decrease of affinity for CaM against P454: 4 fold
